Assay results reported in patent US20110200608A1.

Target: high molecular weight-melanoma associated antigen (HMW-MAA), human (human) (UniProt Q6UVK1)
Test: competition cell ELISA on HMW-MAA+ SK-MEL-28 cells, 1 h at 4 °C, SA-HRP; competitor: biotinylated scFv C21 (0.25 µg/well); axis gives µg of mAb, not a concentration

Sequence of high molecular weight-melanoma associated antigen (HMW-MAA), human (human) (Q6UVK1 30-2322): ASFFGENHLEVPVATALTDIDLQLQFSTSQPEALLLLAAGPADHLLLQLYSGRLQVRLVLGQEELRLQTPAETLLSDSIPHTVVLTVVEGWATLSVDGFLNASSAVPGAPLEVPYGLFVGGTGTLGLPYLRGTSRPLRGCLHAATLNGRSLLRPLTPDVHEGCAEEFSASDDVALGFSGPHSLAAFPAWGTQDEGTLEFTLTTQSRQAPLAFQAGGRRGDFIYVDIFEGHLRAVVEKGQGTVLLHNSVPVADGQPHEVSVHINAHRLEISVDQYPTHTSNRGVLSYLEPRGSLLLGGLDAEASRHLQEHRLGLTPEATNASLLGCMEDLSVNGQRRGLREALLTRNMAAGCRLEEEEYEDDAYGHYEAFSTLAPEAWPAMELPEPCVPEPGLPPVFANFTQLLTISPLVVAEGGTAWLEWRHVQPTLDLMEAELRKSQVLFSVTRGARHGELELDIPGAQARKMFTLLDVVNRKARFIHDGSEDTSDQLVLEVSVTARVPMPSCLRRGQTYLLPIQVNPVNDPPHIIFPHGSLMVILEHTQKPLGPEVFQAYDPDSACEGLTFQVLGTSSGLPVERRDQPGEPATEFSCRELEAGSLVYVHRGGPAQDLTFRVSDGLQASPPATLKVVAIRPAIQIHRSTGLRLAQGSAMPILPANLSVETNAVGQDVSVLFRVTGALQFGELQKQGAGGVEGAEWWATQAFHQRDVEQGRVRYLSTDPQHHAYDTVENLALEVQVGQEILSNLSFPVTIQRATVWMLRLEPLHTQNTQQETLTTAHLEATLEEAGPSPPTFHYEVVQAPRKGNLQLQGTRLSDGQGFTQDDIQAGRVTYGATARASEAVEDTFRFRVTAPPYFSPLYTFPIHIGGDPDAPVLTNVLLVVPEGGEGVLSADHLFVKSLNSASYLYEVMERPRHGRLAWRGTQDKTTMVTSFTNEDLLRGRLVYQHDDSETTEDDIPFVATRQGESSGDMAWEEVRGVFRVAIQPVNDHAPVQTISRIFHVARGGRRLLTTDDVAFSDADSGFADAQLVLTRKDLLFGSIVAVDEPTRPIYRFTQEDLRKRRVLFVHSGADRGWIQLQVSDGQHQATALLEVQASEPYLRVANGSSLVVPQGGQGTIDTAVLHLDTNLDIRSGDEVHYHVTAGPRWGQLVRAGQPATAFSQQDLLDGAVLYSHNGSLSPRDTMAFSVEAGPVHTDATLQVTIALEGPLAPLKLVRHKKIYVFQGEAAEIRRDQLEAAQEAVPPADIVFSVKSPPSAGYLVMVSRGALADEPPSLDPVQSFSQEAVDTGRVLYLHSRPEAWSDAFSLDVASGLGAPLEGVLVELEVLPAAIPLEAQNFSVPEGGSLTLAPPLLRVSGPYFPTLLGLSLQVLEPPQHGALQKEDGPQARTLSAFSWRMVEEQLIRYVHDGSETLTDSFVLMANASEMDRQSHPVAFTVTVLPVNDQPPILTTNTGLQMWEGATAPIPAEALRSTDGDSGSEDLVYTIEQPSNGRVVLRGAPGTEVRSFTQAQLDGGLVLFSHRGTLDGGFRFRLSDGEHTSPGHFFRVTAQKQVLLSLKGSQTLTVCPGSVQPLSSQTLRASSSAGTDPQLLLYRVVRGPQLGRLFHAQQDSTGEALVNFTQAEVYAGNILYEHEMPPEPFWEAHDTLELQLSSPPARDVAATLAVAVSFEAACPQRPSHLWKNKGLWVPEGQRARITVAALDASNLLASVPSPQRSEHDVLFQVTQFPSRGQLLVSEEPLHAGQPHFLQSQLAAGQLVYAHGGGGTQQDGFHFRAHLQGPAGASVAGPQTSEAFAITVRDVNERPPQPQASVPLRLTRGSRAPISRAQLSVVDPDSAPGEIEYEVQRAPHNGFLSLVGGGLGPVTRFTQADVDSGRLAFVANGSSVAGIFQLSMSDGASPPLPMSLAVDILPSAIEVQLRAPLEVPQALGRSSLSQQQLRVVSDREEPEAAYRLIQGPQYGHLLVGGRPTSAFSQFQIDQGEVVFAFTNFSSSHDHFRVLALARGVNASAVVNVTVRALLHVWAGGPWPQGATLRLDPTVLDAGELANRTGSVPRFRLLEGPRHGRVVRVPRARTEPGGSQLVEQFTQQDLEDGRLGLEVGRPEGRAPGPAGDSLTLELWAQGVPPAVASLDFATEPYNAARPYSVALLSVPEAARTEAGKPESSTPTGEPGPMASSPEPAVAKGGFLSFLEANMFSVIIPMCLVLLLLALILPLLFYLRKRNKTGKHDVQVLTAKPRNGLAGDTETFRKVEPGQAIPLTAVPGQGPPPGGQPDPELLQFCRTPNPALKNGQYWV

IC50 (read off the curve): 0.03 µg
Substance: HMW-MAA-specific mouse mAb VF1-TP34 (antibody)
